No end group written: not given here.
T1: human Y5 receptor (human, UniProt Q15761 1-445)
T1 construct: whole, on cells
T1 sequence (looked up): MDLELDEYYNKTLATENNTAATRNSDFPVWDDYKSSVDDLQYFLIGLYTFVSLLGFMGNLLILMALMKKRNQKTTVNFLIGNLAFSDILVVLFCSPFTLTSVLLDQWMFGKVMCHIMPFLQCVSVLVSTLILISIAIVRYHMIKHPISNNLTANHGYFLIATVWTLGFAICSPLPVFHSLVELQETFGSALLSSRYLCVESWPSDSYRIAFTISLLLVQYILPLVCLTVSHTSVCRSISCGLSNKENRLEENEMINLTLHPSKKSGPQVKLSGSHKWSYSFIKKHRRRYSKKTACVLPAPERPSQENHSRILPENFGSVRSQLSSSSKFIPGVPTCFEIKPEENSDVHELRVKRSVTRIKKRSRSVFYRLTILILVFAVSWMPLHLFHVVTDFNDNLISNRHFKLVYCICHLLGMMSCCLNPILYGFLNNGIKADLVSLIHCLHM

T2: human Y2 receptor (human, UniProt P49146 1-381)
T2 sequence (looked up): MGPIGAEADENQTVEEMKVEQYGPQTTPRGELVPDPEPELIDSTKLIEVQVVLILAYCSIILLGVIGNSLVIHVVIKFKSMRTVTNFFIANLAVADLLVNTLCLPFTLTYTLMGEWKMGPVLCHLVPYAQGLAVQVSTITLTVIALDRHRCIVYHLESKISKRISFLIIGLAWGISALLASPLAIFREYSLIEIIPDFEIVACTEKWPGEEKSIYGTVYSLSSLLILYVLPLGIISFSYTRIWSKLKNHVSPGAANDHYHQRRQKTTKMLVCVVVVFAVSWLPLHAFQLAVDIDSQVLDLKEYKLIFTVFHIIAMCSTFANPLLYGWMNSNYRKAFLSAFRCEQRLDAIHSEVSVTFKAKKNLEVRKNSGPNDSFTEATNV


Experiments:
[1] = molecular target: T1, human Y5 receptor; assay: competition binding, 125I-NPY displaced, COS-7 cells with human Y5
Experimental: (§1) Transfected COS-7 cells are transferred to culture plates one day after transfection at a density of 40×10^3 cells per well aiming at 5-8% binding of the radioactive ligand. […] Determinations are made in duplicate. Steady state binding is reached with the radioactive ligand under these conditions. EC50 values were calculated using a standard pharmacological data handling software, Prism 3.0 (graphPad Sofware, San Diego, USA).

[2] = molecular target: T1, human Y5 receptor; assay: cell-based or functional assay
[3] = molecular target: T2, human Y2 receptor; assay: cell-based or functional assay
[4] = molecular target: T3, human Y4 receptor (human, UniProt P50391 1-375); assay: cell-based or functional assay
[5] = molecular target: T3, human Y4 receptor; assay: competition binding, 125I-PP displaced, COS-7 cells with human Y4
Experimental: as §1

T3 sequence (P50391 whole entry): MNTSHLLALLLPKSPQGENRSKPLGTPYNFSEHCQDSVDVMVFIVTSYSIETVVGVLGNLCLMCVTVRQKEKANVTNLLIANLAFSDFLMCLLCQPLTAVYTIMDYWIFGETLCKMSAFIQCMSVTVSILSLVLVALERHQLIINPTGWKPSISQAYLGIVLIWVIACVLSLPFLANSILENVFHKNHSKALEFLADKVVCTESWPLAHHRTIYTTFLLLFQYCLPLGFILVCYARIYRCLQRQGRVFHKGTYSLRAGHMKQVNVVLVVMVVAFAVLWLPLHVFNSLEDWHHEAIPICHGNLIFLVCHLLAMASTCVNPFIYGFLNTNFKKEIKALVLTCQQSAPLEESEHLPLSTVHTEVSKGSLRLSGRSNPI

| Binder | IC50 [1] [nM] | EC50 (inositol phosphate turnover) [2] [nM] | EC50 (inositol phosphate turnover) [3] [nM] | EC50 (inositol phosphate turnover) [4] [nM] | IC50 [5] [nM] |
| --- | --- | --- | --- | --- | --- |
| KKKKKKRHYLNLVTRQRY-NH2 (also called [Lys]6-PYY25-36) [Lys-Lys-Lys-Lys-Lys-Lys-PYY25-36] | 429 | > 1000 |  |  |  |
| APLKPVYPGDNATPEQMAQYAADLRRYINMLTRQRY-NH2 [[Lys4,Gln34]PP] | 0.87 | 3.8 | 0.17 | 64 | 6 |

— US20090186811A1 (published 2009)
